The target of this experiment is Ad5 hexon with DogTag inserted at HVR5, on Ad-DogTag virions (human adenovirus 5 (Ad5)) (UniProt P04133). Briefly: SDS-PAGE gel shift. For orientation: A gel shift assay detects complexes by their altered migration in electrophoresis.

As to “DogCatcher fused to SARS-CoV-2 spike receptor-binding domain (DogCatcher-RBD) (from UniProt P0DTC2 319-532) (designed binder)”, the percent of hexon covalently coupled (% of hexon monomers) was 57.

(Values after article PMC9364715.)
